Tests used:
[1] = target: wild type ACKR3 fused with Renilla luciferase (RLuc) on the C-terminal tail (human) (UniProt P25106)
[2] = target: β-arrestin1 tagged with the eYFP fluorescent protein (UniProt P49407); assay: BRET; conditions: CXCL12 (100 nM), HEK293T cells, read at last time point (~56 min), read off a plot
[3] = target: β-arrestin2 tagged with the mVenus fluorescent protein (UniProt P32121); assay: BRET; conditions: CXCL12 (100 nM), HEK293T cells, read off a plot

CXCL12, sequence (P48061 22-93): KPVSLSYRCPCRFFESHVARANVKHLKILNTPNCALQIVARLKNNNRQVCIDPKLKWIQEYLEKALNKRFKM
UniProt P25106, sequence (P25106 whole entry, the tested form may be a part): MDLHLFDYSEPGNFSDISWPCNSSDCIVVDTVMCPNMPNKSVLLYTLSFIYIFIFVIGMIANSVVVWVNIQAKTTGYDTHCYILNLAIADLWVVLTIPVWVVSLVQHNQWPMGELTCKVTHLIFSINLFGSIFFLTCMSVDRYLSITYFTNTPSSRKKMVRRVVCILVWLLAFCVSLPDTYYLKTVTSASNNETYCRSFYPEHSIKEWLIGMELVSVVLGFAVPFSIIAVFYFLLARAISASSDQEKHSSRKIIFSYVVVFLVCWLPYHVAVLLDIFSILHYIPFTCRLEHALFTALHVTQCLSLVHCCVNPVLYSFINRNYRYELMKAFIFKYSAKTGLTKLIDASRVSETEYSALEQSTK

For “CXCL12 (from UniProt P48061 22-93) (ligand)”, the pEC50 of CXCL12 for ACKR3-RLuc translocation to Rab5a-mVenus (early endosome sensor, BRET, HEK293T) [1] was 9.1 pEC50, the pEC50 of CXCL12 for ACKR3-RLuc translocation to Rab11-mVenus (recycling endosome sensor, BRET, HEK293T) [1] was 9.1 pEC50 and the pEC50 of CXCL12 for GRK2-mVenus recruitment to ACKR3-RLuc (BRET, HEK293T) [1] was 8.2 pEC50. For the same substance, the pEC50 of CXCL12 for GRK3-mVenus recruitment to ACKR3-RLuc (BRET, HEK293T) [1] was 8.1 pEC50, the pEC50 of CXCL12 for GRK5-mVenus recruitment to ACKR3-RLuc (BRET, HEK293T) [1] was 8.3 pEC50 and the pEC50 of CXCL12 for loss of ACKR3-RLuc co-localization with K-Ras-mVenus (cell membrane sensor, BRET, HEK293T) [1] was 8.9 pEC50. The pEC50 of CXCL12 for β-arrestin1-eYFP recruitment to ACKR3-RLuc (BRET, HEK293T) [1] was 8.1 pEC50 and the pEC50 of CXCL12 for β-arrestin2-mVenus recruitment to ACKR3-RLuc (BRET, HEK293T) [1] was 8.2 pEC50.

In the case of “wild type ACKR3 fused with Renilla luciferase (RLuc) on the C-terminal tail (from UniProt P25106) ST/A 350.355”, the response ([2]; parent: est. 1.09) is reported as 1.01 fold vehicle and the response ([3]; read at last time point (~56 min), parent: est. 1.17) is reported as 1.14 fold vehicle.

Work on “wild type ACKR3 fused with Renilla luciferase (RLuc) on the C-terminal tail (from UniProt P25106) full ST/A” yielded a response ([2]; parent: est. 1.11) of 1 fold vehicle and a response ([3]; read at last time point (~33 min), parent: est. 1.13) of 1.02 fold vehicle.

From article PMC8002179
